According to US20210071137A1, “PRODUCTION METHOD FOR CELL MASS INCLUDING NEURAL CELLS/TISSUE AND NON-NEURAL EPITHELIAL TISSUE, AND CELL MASS FROM SAME” (SUMITOMO CHEMICAL COMPANY, LIMITED, priority 2017, published 2021):
Counter-ions that a name gives are not always drawn.

B1: BMP4: human recombinant BMP4 (manufactured by R & D Systems), BMP signal transduction pathway activating substance (protein, UniProt P12644 293-408, looked up)
Bone morphogenetic protein 4: SPKHHSQRARKKNKNCRRHSLYVDFSDVGWNDWIVAPPGYQAFYCHGDCPFPLADHLNSTNHAIVQTLVNSVNSSIPKACCVPTELSAISMLYLDEYDKVVLKNYQEMVVEGCGCR

Experiments:
Format in all cases: cell-based
[1] = system: cell mass containing neural tissue and nonneural epithelial tissue prepared from human ES cell line KhES-1; assay: Compound stimulability test by fluorescein staining and extraction (Example 11); conditions: test compound 2.5% in PBS, 24 hr, 37° C.; 0.02% fluorescein 30 sec; extraction 10 min; excitation 485 nm, emission 535 nm; Category 1 compound versus Category 2 compound
Description: Cell masses were prepared by the method described in Example 3 from human ES cell line KhES-1. Cell masses were collected using micropipette on day 28 from the start of suspension culturing, placed in a dish for suspension culture (manufactured by SUMITOMO BAKELITE CO., LTD.), and further cultured in suspension under the conditions of 37° C., 5% CO2 for 9 days. As the serum-free medium (gfCDM+KSR) therefor, a serum-free medium which is a 1:1 mixture of F-12+Glutamax medium (manufactured by Thermo Fisher Scientific) and […] medium (manufactured by Thermo Fisher Scientific) supplemented with 10% Knockout Serum Replacement (manufactured by Thermo Fisher Scientific), 450 μM 1-mono thioglycerol (manufactured by Wako Pure Chemical Industries, Ltd.), 1×Chemically defined lipid concentrate (manufactured by Thermo Fisher Scientific), 50 unit/ml penicillin-50 μg/ml streptomycin (manufactured by Nacalai Tesque) was used.
The cell masses on day 37 of suspension culturing and prepared by the above-mentioned method were added to 1.5 ml microtubes at 3 masses per tube, and washed twice with PBS. […] The concentration of fluorescein in the extract prepared by the above-mentioned method was measured using a fluorescent plate reader (2104 EnVision multilabel counter, manufactured by Perkin Elmer) under the conditions of excitation 485 nm and emission 535 nm.

[2] = system: Human ES cells (KhES-1 strain); assay: Consideration of concentration of BMP4 in production of cell mass (Example 6)
Description: Human ES cells (KhES-1 strain, obtained from Kyoto University) were cultured under feeder-free conditions according to the method described in Scientific Reports, 4, 3594 (2014). As the feeder-free medium, StemFit medium was used and, as the feeder-free scaffold, Laminin 511-E8 was used. Specific maintenance culturing operation was performed in the same manner as in Comparative Example 1.
The thus-prepared subconfluent human ES cells were washed with PBS, subjected to an enzyme treatment using Accumax, a serum-free medium for differentiation induction was added, and the cells were scraped from the surface of the culture dish by using a cell scraper and dispersed into single cells by pipetting. Thereafter, the aforementioned human ES cells dispersed into single cells were suspended in 100 μl of a serum-free medium at 1×10^4 cells per well of a non-cell-adhesive 96-well culture plate (PrimeSurface 96V-bottom plate, manufactured by SUMITOMO BAKELITE), and cultured in suspension under the conditions of 37° C., 5% CO2. […]

[3] = system: Human ES cells (KhES-1 strain); assay: Consideration of timing of addition of BMP4 in production of cell mass (Example 4)
Description: Human ES cells (KhES-1 strain, obtained from Kyoto University) were cultured under feeder-free conditions according to the method described in Scientific Reports, 4, 3594 (2014). As the feeder-free medium, StemFit medium was used and, as the feeder-free scaffold, […] was used.
Specific maintenance culturing operation was performed in the same manner as in Comparative Example 1. Thereafter, suspension culturing in a 96-well plate under conditions similar to those in Comparative Example 1 was started. The condition without addition of a BMP signal transduction pathway activating substance during the suspension culturing period was taken as the control (−BMP4 condition, FIG. 5A). In the condition with the addition of a BMP signal transduction pathway activating substance simultaneously with the start of the suspension culturing (Day0+BMP4 condition, FIG. 5B), human recombinant BMP4 (manufactured by R & D Systems, 1.5 nM, start of step 2) was added. Thereafter, in the condition with the addition of a BMP signal transduction pathway activating substance on days 1, 2, 3 from the start of suspension culturing (Day1-3+BMP4 condition, FIGS. 5C-E), a serum-free medium not containing Y27632 and containing IWP-2, SB-431542, BMP4 was added at 100 μl per well. BMP4 was added at 3 nM to the medium such that the final concentration thereof in the well was 1.5 nM. Only in the Day0+BMP4 condition, a serum-free medium not containing Y27632 and containing IWP-2, SB-431542, BMP4 was added at 100 μl per well on day 3 from the start of suspension culturing. In the condition with the addition of a BMP signal transduction pathway activating substance on day 6 from the start of differentiation induction (Day6+BMP4 condition, FIG. 5F), a serum-free medium not containing Y27632 or BMP4 and containing IWP-2 and SB-431542 was added at 100 μl per well on day 3 from the start of differentiation induction, and a half amount of the medium was changed on day 6 with a serum-free medium not containing Y27632 and containing IWP-2, SB-431542, BMP4. Under other conditions, a half amount of the medium was changed with a serum-free medium not containing Y27632 or BMP and containing IWP-2 and SB-431542 on day 6 from the start of suspension culturing. On day 10 from the start of suspension culturing, bright field observation was performed using an inverted microscope (manufactured by KEYENCE CORPORATION, BIOREVO) (FIGS. 5A-B).

[4] = BMP4 1.5 nM, observation day 10

Molecule	elution amount after incorporation of fluorescein [1]	BMP4 concentration at which nonneural epithelial tissue can be formed on the surface of cell mass ([2]; BMP4 added on day 2 from the start of suspension culturing)	formation of cell mass having nonneural epithelial tissue on the surface ([2]; BMP4 at any concentration from 0.1 nM to 5 nM added on day 2, IWP-2 2 μM, SB-431542 1 μM, observation day 10)	time of addition from the start of suspension culturing effective for formation of the cell mass ([3]; BMP4 1.5 nM) [h]	formation of cell masses with two-layer structure ([3]; BMP4 1.5 nM added on day 1 and day 2 (Day1, 2+BMP4), observation day 10)	efficiency of formation of nonneural epithelium-like tissue on the outside ([3]; BMP4 1.5 nM added on day 3 and day 6, observation day 10)	formation of embryoid body ([3]; BMP4 1.5 nM added simultaneously with start of differentiation induction (Day0+BMP4), observation day 10)	diameter of embryoid body, BMP4 on day 2 relative to BMP4 on day 1 [3, 4]	volume of embryoid body, BMP4 on day 2 relative to BMP4 on day 1 [3, 4]
O=Cc1ccc(C(=O)O)cc1 [4-formylbenzoic acid]	significant difference	–	–	–	–	–	–	–	–
CC(CN1c2ccccc2Sc2ccccc21)N(C)C (stereo not shown) [promethazine hydrochloride]	significant difference	–	–	–	–	–	–	–	–
B1	–	not less than 0.1 nM	a cell mass having nonneural epithelial tissue on the surface was formed	≤ 72	cell masses containing neural tissue and nonneural epithelial tissue and having a two-layer structure in which a center part with a neuroepithelium-like structure is covered with a nonneural epithelium-like layer were formed	lower than that of the condition with the addition of BMP4 on day 2	markedly inhibited	about 1.3 times	about 2.2 times
